In the experiment the target is CtBP2(WT) (human) (UniProt P56545). The experiment is described as follows: SEC; analytical Superose 6 3.2/300 GL, 50 mM HEPES (pH 7.2), 150 mM NaCl; CtBP kept at 100 µM, RAI2 variants titrated at ratios 1:0.1 to 1:2; proteins also run alone; assembly stoichiometries estimated from the elution volumes.

Stoichiometry N data for one substance are collected here from article PMC11187106.

In general, stoichiometry N refers to the number of molecules, sites or subunits per partner or assembly.

For “CtBP2(WT), P56545 1-445 (natural protein; other documents disagree on this pair)”, the stoichiometry N was 4.
